The nature of this data set: soluble on expression in E. coli; label from the status in PepcDB or PDB records.
Take “MAPPTFADLGKSAKDLFNKGYNFGFLKIDSTTRAGDNKEVEFKSAASHNIGSGKLGGNLDVKYKIPQYGITLTEKWNTENQLGTVIEVNEQFGRGLKVTLDSLYAPHAGKRSGKVKLDWALPTARVTADVGVTSAPVINAAGVFSRDGWLIGAAATFDSSSNKLAATSLAFGHSTPQYTLHSFVINSTDFGASLYHKVASNVEVGTQLGWKVGGNGADYALATKYAPSRDLTVRAKVNSSSQVAVAATHSLSPALKLTLSTQFNLAANDAHKFGLGLEFDPSN”: the “soluble on expression in E. coli” value is recorded as “not soluble”.
The value for “MAHHHHHHMNFLRRNAANLCKGKVLGKHLNCSVHELTNLNKRKISNITDLGKCGQRYQATHSGSTIGAKRFASSEAQKLSEVVKAEVQHEKSNYEAPDNIKKFLQTSGWKFEEQEGDVNMVLTKNVDGMKIIIDFQLVSPFQAEGENEAQAEMTDFSVTVEKPNKQGGITFYCTTLQNDEKFRYMIGNVKYYKNEEGKNSVSAYNGPEFEDLDDSLQTSLDEWLANLGVDSELCDFIDSCSIDKEQREYMSWLQNISNFIES” was “not soluble”.
With “MGSDKIHHHHHHMDVTQLKMLHNAKVISEIKKGFSVDRKYQVDETYLVRVFPIDLLQERKQEFKIIQALDSQTPFVPKAYDFGFIEREGYMIISYLRGEDAESGMTHLSHSEQFKAGFSAGEILREVHKIPLDIPKMNWLDFQTAKFKRKVEELKELEITASFLTDTEKFVYKNIARLKNRPICLQHGDFHPANIILNNKKFVGLIDFNRLEFGDPLFDLAKIGFFTTEVSIPFARGNILGYIDKEEVTDFWNLYALYTAMHITSAVSWAAKNESRNFKKLMDYAVKTAASHDNFQKIVPNWMNEEEFK”, the “soluble on expression in E. coli” value is reported as “not soluble”.
The value for “MGSDKIHHHHHHMFVLKNVKYKDILNIEELHIPARKITVITGKSGTGKTTLLKMLNKLISPDSGEIFFKGTPLTEIDSVELRRKVVMLPQFPVVFPGNVKENLLMGLKFSGKKIPHDEELRKILKFVMLEKDLNDDPEKFSGGEKQRLALARVLLMDPEVLLLDEPTSSLDEKTGIEIIKKVSNFAKSRGKTLVMVTHNPELRKFADVLIELKNGRVL” was “not soluble”.
The value for “MQNVKHSYLACSSSSCCQFFSLFLSLCHAEHQIQTLSPSFAYTLLIFALLVSDKSEIALLSRHTHTYIFLPISSVHPSLELLPFVVFMHMRKLLNDVIRPLKKGDGRSAWNVLIVDTLAMRMLSSCCKMHNIMEEGITIVEDLNKRREPLPTLEAIYLIAPTAESIDKLIQDYCARNLYKCAHVFFTEACSDQLFSTLSKSAAARFIKTLKEINIAFTPYESQVFNLDSPDTFFLYYNAQKQGGLTSNLERIAEQIATVCATLGEYPSLRYRADFERNVELGHLVEQKLDAYKADDPSMGEGADKARSQLIIIDRGYDAITPLLHELTLQAMCYDLLGIENDVYKYETGGSDENLEKEVLLDENDDLWVEMRHKHIAVVSQEVTKNLKKFSESKGNKGTMDSKSIKDLSMLIKRMPQHKKELNKFSTHISLAEECMKQYQQGVDKLCKVEQDLSTGIDAEGERVRDAMKLMVPLLIDPAVRCEDRLRLILLYILSKNGITDENLNKLLQHANISMADKETITNAAYLGLNIVTDTGRKKTWTPTKKERPHEQVYQSSRWVPVIKDIIEDAIDERLDTKHFPFLAGRQVNQGYRAPASARYGQWHKERGQQSNYRSGPRLIIYIIGGVTFSEMRACYEVTAARKPWEVVIGSDRIITPDKFLTNLRDLNKPRDI” was “soluble”.
The value for “MKTAIIQLPGLNRDRDMVAALHHITGVEPLKIWQTESTIPDVDVIVIPGGFSYGDYLRCGAIGARTPVLQAVREKAQKGVTVIGICNGFQILLEAGLLPGTLMRNTSLKFVCREIKLEVVNVNTKFSRYYSKGQIICCPVAHHDGNYFVDSETLKQMEENEQIIFRYAENTNPNGSVNDIAGIINKAGNILGMMPHPENFIEPAHGGTDGRLFFQSALELAKG” was “not soluble”; that for “MISIHFEKAHDCHQLFQQLQGYLTKYAELGLKGGIEAGGDETLYVNYENQYVNFYDSFQPLLASIFTDYVISTKEEEWLLDIIENMFYFTDEEEKEQIVAIARSILEGDLEDMPSLSMFTNRREYIYQAFSKHIEENMTFYYDPFLTFRLREYGELLIDCVELAIDEYMMEQEYQSMVETLRQFIHSRIPKRGVIYAVYDERFHFYDEHFRLISTDEIVYDLKEELVFEHGLSVEEMVISPLVSMLPETVKVFTNDEEHGVILTLQAIFQERLKVFPLKDSPHQHREELEHHHHHH” was “soluble”; that for “ADCSSDLTSGISTKRIYYVAPNGNSSNNGSSFNAPMSFSAAMAAVNPGELILLKPGTYTIPYTQGKGNTITFNKSGKDGAPIYVAAANCGRAVFDFSFPDSQWVQASYGFYVTGDYWYFKGVEVTRAGYQGAYVIGSHNTFENTAFHHNRNTGLEINNGGSYNTVINSDAYRNYDPKKNGSMADGFGPKQKQGPGNRFVGCRAWENSDDGFDLFDSPQKVVIENSWAFRNGINYWNDSAFAGNGNGFKLGGNQAVGNHRITRSVAFGNVSKGFDQNNNAGGVTVINNTSYKNGINYGFGSNVQSGQKHYFRNNVSLSASVTVSNADAKSNSWDTGPAASASDFVSLDTSLATVSRDNDGTLPETSLFRLSANSKLINAGTKESNISYSGSAPDLGAFERN” was “soluble”.
“MSKAKIGIVTVSDRASAGIYEDISGKAIIDTLNDYLTSEWEPIYQVIPDEQDVIETTLIKMADEQDCCLIVTTGGTGPAKRDVTPEATEAVCDRMMPGFGELMRAESLKFVPTAILSRQTAGLRGDSLIVNLPGKPKSIRECLDAVFPAIPYCIDLMEGPYLECNEAVIKPFRPKAK”: the “soluble on expression in E. coli” value is given as “soluble”.
The entry for “MAGLRSFSIVMPAYNVVTQRGERIFRETLESIAASCRYLQQHFPYTPEGELILISDGSTDRTCDVAMAGWPNAVPLQLVGLPTNVGIAAARNIGVRLAKGEVIFFCDADDLYRPEHLFLALSVLNQPLPEPYAPAYFGAVRTGVYCRDRLHPYWHKSLEQTLVLNLAVRREVHEFIGGFPEDEVFRQFRYGAEDVAYAYWLHQFCHTARLEQRTVEYRRFPLEHHHHHH” is “soluble”; for “MGSDKIHHHHHHMKKIHGKVMVERHHLEILRAVERQGSLTAAAEQLHLTQSALSHAIRKLEQQLGTSVWLREGRQLRLTQAGHQLLALANRLLPQFEHAEMQIHQIAQGQRGSLRVGMECHPCYQWLLKVVGPYLQQWPDVDVDVKQEFQFGGMGALFGHDIDLLVTPDPLHKPGVRFEPVFDYEQVLVVSEDHSLADEKWVEPHQLEKETLITYPVAVERLDIFTRFFLPAHTAPARHKTIETTDIMLQMVAAGRGVSALPRWLVDDYARNMPIRALKLGQQGMPKQIFLGFRERDEAVDYLNAFVKLARSIRWN” it is “not soluble”; for “MSSVPQSKQELELAIHSVFPKLMADYRSIPAQMSRVCSIDGNIQGTQISVCDTVAYLIGWGKLVLKWYELTSQTLPVDFPDTGYKWNQLELLADRFHQEYHQWQYSDLLNEYELTMAKLLTLIASLSVQQLYGIAWYDKWTLGRMIQFNTYSPMKNMRTKVRRFKKDNALKLEHHHHHH” it is “not soluble”.
On to “MGSDKIHHHHHHACSDDDKVSISTVGITTTVDTTIEGLQLTGGTYTFENVNTSVKTDITYPAQSIELADGLYNVTFIGKGTYSQNGTPVEVDVQGVQQNVAVSGGSYKLELKVHVLNTGDPDFVIAEIFIPGTYNEAGKQYNGDQYIRIYNNSDKVLYADGLIFMESQFQTTQKYQSVDPDIMDEAIAVGSVVAVPGSGTDYPVQPGESFILCDNAINHKEANPNSIDLSKANFEWYIESKQDVDNPAVPNLDVYYCYSKTIWVLNKQGNRAYAIGRLPKSMTKEKYISDYAYNYTYIMQNGTASKPQSKYKFPNEWVIDAVNVGASNEWQWNVTSTGLDMGHTYIGMNNTVAENIGKCVMRKAAYKDGDREVLQDTNNSTVDFTPAATPSLFNK”, for which the “soluble on expression in E. coli” value is “not soluble”.
Turning to “MTKYALVGDVGGTNARLALCDIASGEISQAKTYSGLDYPSLEAVVRVYLDEHSVSVEDGCIAIACPITGDWVAMTNHTWAFSIAEMKKNLGFSHLEIINDFTAVSMAIPMLKKEHLIQFGGGEPVDGKPIAVYGAGTGLGVAHLVHVDKRWISLPGEGGHVDFAPNSEEEAMILEILRAEIGHVSAERVLSGPGLVNLYRAIVKSDNRLPENLRPKDITERALADSCIDCRRALSLFCVIMGRFGGDLALTMGTFGGVYIAGGIVPRFLEFFKASGFRGGFEDKGRFKDYVHGIPVYLIVHDNPGLLGSGAHLRQTLGHIL”, the “soluble on expression in E. coli” value is “not soluble”.
For “MGSDKIHHHHHHMGVSKRTVMRYQTCREPGSLSASDKFKSVEAALESHVKEEEARYSGKGRGDGSLWHHLVRVARLAEKLGRSEGLDPATCRLAGLFHDAGKFSGGTYHQDDRPEEERSVDILVELAGKHDLDRDIVDRIARSFQQLYRDGENQTPLTRVLFDADNLDKLGFLGIANYFIKTGLRGKGVSANMLYQLTAELTYARHAADCMATPAGRELALRKAPETYRFILDLLQSLRDDGIFDFKVEEVMFDQLLLDVVSPYSCECRGTLERRLWNVRGIKCLEIHLEHSCPRCEARHEIRFCTPKLRTQGEKNTGDLFRTSQLDIRQAADSYF”, the “soluble on expression in E. coli” value is given as “not soluble”.
The value for “APKASLRLGFSEYSRISNLIVLHLRKVEEEEDESALKRSELVNWYLKEIESEIDSEEELINKKRIIEKVIHRLTHYDHVLIELTQAGLKGSTEGSESYEEDPYLVVNPNYLLED” was “soluble”; that for “MDKKTACAHVAEPCEFSYSTRDAIIYALGVGARAKEDLCYVYENHEDFKVLPSYIVAPGFQAHTLMDWPGVEFDLQRVLHGEQYIEVYQPLSAEGKLKSEARVVDILDKGSGALILGNVTTYDENGKKIAMQQFSTFQTGSGNFGGDRTSPHEIKAATVPDRAPDAVIEQKTTVDQAALYRLGSGDMNPLHVDPEFAKMSGFKTPILHGLCSLGFATRHVIAAWAGNDSDKFKAIKVRFSSPVLPGQTLVTETWKNGKRIIFQMKVKETGKIVISNAFIDLHEASELPTVPIDLASKL” was “not soluble”; that for “MPVAISLPTSSTSHFFPRRRGHANHRYQRFSGAQSSTEDPYIRKNQTGVIIIGAGLAGLAAANQLTSKRIPFLLLEASDGVGGRVRTDIVDGFFLDRGFQIFITAYPEAKKLLDYEALDLQRFYAGAKVFYGGKFHTVADPLRHFWDSVASLANPIGSVVDKGLIALTRARVLIKSDEEILTAADEVPTIDLLRKIGFSETILDRFFRPFFGGIFFDRDLETTSKLFDFVFRCLALGENTLPAMGIGEISNQLAAKLPAKSVLLNTRVASIEYPNGSGSDPPSVRLQDGSVMKAELGVIIAVEQPEVNKLLDGIRDPVITKPARSTICLYFTAEPNQIPVQDPVLFLNGSNSGIINNMFFATNVARTYAPPGKALVSVSLIGLFEDRTDDDLAAEVLRELSGWFGESPVMSWKHLKTYRIQFAQPNQCPPTDLVKSPRVGSGLYLSGDYMTSATFDGALVSGRRAVEVLLRETGLIK” was “soluble”.
The entry for “MKQWADDENLPMERYKNYQMIVPAFIIKDILDGKIPETFEDSKNIKMIEASWGEESYTKGHIPTSVHVNTDIIEPPPTWMLDNDDNLTKFALDYGLTKDDTVIVSSSTPMASYRLAVILRYIGVKDVRVLNGGTNSWLSAGYELEFISNPKLEHHHHHH” is “not soluble”.
The entry for “MSLNVIMAGIDYTLAPIDIREKFSFTKSTLQAVYNDLLKNENIFGAVIVSTCNRTELYLSCEEGLYINPFELLCDAANFDYEEYSNMHVLRTGVDVIRHLCELACGVKSQIWGEDQIITQVRNAIELAREMNASDSTLEVMFRIAVTSAKKVKTTLKLSSTERSIAYSALKIIKSKENISKALVIGNGEIGRLMASILIENGYDTTITLRRYRHGDNIIPLGAKTIEYVARYEKLKDCDVVISATLSPHYTLEIDKIDRIKYPRLFIDLAVPRDIDPKIKSLDNVELYDLDSIYAGEVDKNRTEQMIQVKKIIDKYIFDYYRWYEYRKRLVLTEGHHHHHH” is “soluble”.
